Data: patent US20140296500, “Methods and Compositions of Nucleic Acid Ligands for Detection of Clinical Analytes Related to Human Health” (OTC BIOTECHNOLOGIES, LLC, published 2014)

T1: CTx 8-AA peptide (EKAHDGGR) (Homo sapiens, UniProt P02452 P02452:1207-1214)
T1 chain: EKAHDGGR

B1: hGH aptamer SEQ 348 (ssDNA)
DNA: ATCCGTCACACCTGCTCTAGGATTTTTGTTATGTCGGCCACGATGGGGACCCCGTGGTGTTGGCTCCCGTAT
B2: hGH aptamer SEQ 379 (ssDNA)
DNA: ATACGGGAGCCAACACCACCTGAGCGCCGGCAGCACTCACTATTTGTCCCCGCAAGAGCAGGTGTGACGGAT
B3: CTx 2R-2h 15-base beacon (ssDNA)
DNA: GGTGGTGTTGGCTCC
B4: CTx 2R-2h 13-base beacon (ssDNA)
DNA: GTGGTGTTGGCTC
B5: hGH aptamer SEQ 377 (ssDNA)
DNA: ATACGGGAGCCAACACCACATGACGGGTGACTAAAAGACGAAATCTCCCAATTAAGAGCAGGTGTGACGGAT
B6: hGH aptamer SEQ 343 (ssDNA)
DNA: ATACGGGAGCCAACACCATAAGCAGAGAACTACAAGACGATCCCATATTCCAAAGAGCAGGTGTGACGGAT
B7: hGH aptamer SEQ 388 (ssDNA)
DNA: ATCCGTCACACCTGCTCTAAAACATGGGCCCAATTAGGCGTGATCCAACCCGTCTGGTGTTGGCTCCCGTAT
B8: hGH aptamer SEQ 345 (ssDNA)
DNA: ATACGGGAGCCAACACCAGGTTGGCGTCAAAAGAAATAAGGGATATACATTAGAGAGCAGGTGTGACGGAT
B9: hGH aptamer SEQ 338 (ssDNA)
DNA: ATCCGTCACACCTGCTCTTGGGTGAATCAATTGTTCGTACTCCACGTGATTCTGTGGTGTTGGCTCCCGTAT
B10: hGH aptamer SEQ 336 (ssDNA)
DNA: ATCCGTCACACCTGCTCTGGGGTGTATCCTTTTATGGATCTGCGAGAATAAGTCTGGTGTTGGCTCCCGTAT

Tests used:
[1] = target: T2, Recombinant human growth hormone (r-hGH) (Homo sapiens, UniProt P01241 P01241:27-217); assay: ELONA; binds r-hGH better than natural hGH; conditions: tags: >95% pure research grade; label: 5'-biotin
Method: FIGS. 16A-16D show four more examples of aptamers (from the SEQ ID NOs 325-526) that bind recombinant human growth hormone (“r-hGH”) better than the natural form of hGH or somatotropin to help discriminate the artificial form in potential drug or doping tests for atheletes and growth-challenged children. The ELISA-like assays were conducted with the named aptamers (SEQ ID NOs 348, 377, 379 and 388) instead of antibodies in each case and absorbances were red at 405 nm with an automated microplate reader after a 15 minute development time in the presence of ABTS substrate as is standard in the diagnostics industry.

[2] = target: T3, CTx peptide (C-telopeptide of human type I bone collagen, 26 AA …) (Homo sapiens, UniProt P02452 P02452:1193-1218); assay: FRET beacon; LOD 1 ng/ml; 0.5 M NaCl, 10 mM Tris-HCl, 1 mM MgCl2, pH 7.5-7.6, RT; conditions: label: 5'-TYE665, 3'-Iowa Black RQ
Method: Generally, the aptamer beacons or competitive FRET-aptamer complexes are then diluted to a final concentration of 1-5 μg/ml in 1×BB and equally dispensed to polystyrene or methacrylate cuvettes in which 1 ml of unlabeled target at various concentrations in 1×BB, PBS or diluted blood, plasma, serum, saliva, aspirate or urine has been added already. Cuvettes are gently mixed for 15 to 20 minutes at RT prior to reading their fluorescence in the homogeneous beacon or competitive-displacement FRET assay formats using a spectrofluorometer having gratings to vary the excitation wavelength and emission scanning ability or a stationary, handheld or otherwise portable fluorometer having a more restricted or fixed excitation and emission optical filter set with a range of wavelengths for excitation and emission.
FIGS. 3A-3F show how each of the aptamer beacons derived and defined from FIG. 2 behaved as a function of decreasing CTx peptide concentration (serial two-fold dilutions beginning with 100 micrograms per ml and ending with zero CTx peptide) in 1× binding buffer (1×BB; 0.5 M NaCl, 10 mM Tris-HCl, pH 7.5-7.6, 1 mM MgCl₂). In the figures “h” means hour or O'clock so that 2 h refers to the 2 O'clock loop from FIG. 2, while F means forward-primed and R means reverse-primed by reference to FIG. 2 as well. […]

[3] = target: Bovine serum albumin (BSA) (Bos taurus, UniProt P02769 P02769:25-607); assay: FRET beacon; unexpected cross-reactivity with BSA; conditions: label: 5'-TYE665, 3'-Iowa Black RQ
[4] = target: T1, CTx 8-AA peptide (EKAHDGGR); assay: FRET beacon specificity; no response with 8-AA segment; conditions: label: 5'-TYE665, 3'-Iowa Black RQ
[5] = target: T3, CTx peptide (C-telopeptide of human …); assay: FRET beacon; almost as good as 15-base version, slightly higher background; conditions: label: 5'-TYE665, 3'-Iowa Black RQ
Method: Cuvettes are gently mixed for 15 to 20 minutes at RT prior to reading their fluorescence in the homogeneous beacon or competitive-displacement FRET assay formats using a spectrofluorometer having gratings to vary the excitation wavelength and emission scanning ability or a stationary, handheld or otherwise portable fluorometer having a more restricted or fixed excitation and emission optical filter set with a range of wavelengths for excitation and emission.
FIGS. 3A-3F show how each of the aptamer beacons derived and defined from FIG. 2 behaved as a function of decreasing CTx peptide concentration (serial two-fold dilutions beginning with 100 micrograms per ml and ending with zero CTx peptide) in 1× binding buffer (1×BB; 0.5 M NaCl, 10 mM Tris-HCl, pH 7.5-7.6, 1 mM MgCl₂). In the figures “h” means hour or O'clock so that 2 h refers to the 2 O'clock loop from FIG. 2, while F means forward-primed and R means reverse-primed by reference to FIG. 2 as well. […] The CTx 2R-2h loop was optimal for FRET-based detection because it gives the greatest spread or separation for various two-fold serial dilutions of the 26-AA CTx peptide beginning at 100 μg/ml. The CTx 2F-10 h loop was also noteworthy, but could not discriminate many of the different CTx concentrations. […]

[6] = target: T2, Recombinant human growth hormone (r-hGH); assay: ELONA; binds r-hGH better than natural hGH; conditions: tags: >95% pure research grade; label: 5'-biotin; remark: listed apart in the source
Method: FIGS. 15A-15D show four examples of aptamers from the SEQ ID NOs 325-526 that bind recombinant human growth hormone (r-hGH; >95% pure research grade) better than the natural form of hGH or somatotropin in ELISA-like assays to help discriminate the artificial form of hGH in potential drug or doping tests for athletes, or to monitor serum levels of exogendus doses of r-hGH administered to children with growth deficits. The ELISA-like assays were conducted with the named aptamers (SEQ ID NOs 336, 338, 343 and 345) instead of antibodies in each case and absorbances were red at 405 nm with an automated microplate reader after a 15 minute development time in the presence of ABTS substrate as is standard in the diagnostics industry.

T2 sequence (P01241 27-217, one chain of several): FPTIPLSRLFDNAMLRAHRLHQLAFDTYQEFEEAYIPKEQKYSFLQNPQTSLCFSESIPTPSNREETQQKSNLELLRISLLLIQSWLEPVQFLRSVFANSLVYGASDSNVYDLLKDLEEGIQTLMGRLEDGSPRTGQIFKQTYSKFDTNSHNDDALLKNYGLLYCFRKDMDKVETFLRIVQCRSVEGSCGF
T3 sequence (P02452 1193-1218, one chain of several): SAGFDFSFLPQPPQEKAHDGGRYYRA
Bovine serum albumin (BSA), sequence (P02769 25-607, one chain of several): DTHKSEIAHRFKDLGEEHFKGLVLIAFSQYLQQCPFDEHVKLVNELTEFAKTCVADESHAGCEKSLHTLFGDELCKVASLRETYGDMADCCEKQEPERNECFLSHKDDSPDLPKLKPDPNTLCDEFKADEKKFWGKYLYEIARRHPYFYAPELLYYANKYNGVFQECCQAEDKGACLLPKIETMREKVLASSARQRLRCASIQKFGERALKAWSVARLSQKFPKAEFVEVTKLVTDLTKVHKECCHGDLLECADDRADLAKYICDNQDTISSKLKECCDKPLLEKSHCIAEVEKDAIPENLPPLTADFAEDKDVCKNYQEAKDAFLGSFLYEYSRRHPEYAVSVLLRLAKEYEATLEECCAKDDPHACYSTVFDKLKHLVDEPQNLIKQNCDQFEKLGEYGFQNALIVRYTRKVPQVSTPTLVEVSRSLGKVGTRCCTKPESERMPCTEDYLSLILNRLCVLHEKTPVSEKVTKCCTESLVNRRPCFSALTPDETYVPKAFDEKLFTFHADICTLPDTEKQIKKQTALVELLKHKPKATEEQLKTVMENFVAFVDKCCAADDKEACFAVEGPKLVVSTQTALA

Row | Binder | binding result [1] | binding result [6] | further results
1 | B1 | binds | – | –
2 | B2 | binds | – | –
3 | B3 | – | – | binding result [2]: binds; binding result [3]: binds; binding result [4]: no binding
4 | B4 | – | – | binding result [5]: binds
5 | B5 | binds | – | –
6 | B6 | – | binds | –
7 | B7 | binds | – | –
8 | B8 | – | binds | –
9 | B9 | – | binds | –
10 | B10 | – | binds | –
